Test results as given in PMC10192352 (2023).

Assays:
[1] = molecular target: T1, NPNA8 peptide, biotinylated (Plasmodium falciparum, biotin (position not given)); test: BLI; 2:1 binding model
T1 chain: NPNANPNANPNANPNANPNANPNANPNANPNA

[2] = molecular target: T1, NPNA8 peptide, biotinylated; test: BLI; 2:1 binding model

B1: L9 Fab (Fab, V domains shown)
VH: QVKLVESGGGVVQPGRSLRLSCEASGFIFSTYGMHWVRQAPGKGLEWVAVIWFDGSNIYYADSVKGRFTISRDNSKNTVFMQMDSLRAEDTAVYYCHRNFYDGSGPFDYWGQGTLVTVSS
VL: DIQMTQSPSTLSASVGDRVTITCRASQFISRWLAWYQQKPGKAPKLLIYKASSLESGVPSRFSGSGSETHFTLTISSLQPDDVATYYCQEYTSYGRTFGQGTKVEIK
B1 was tested, and the Kd [1] was 6.26 µM and the koff [2] was 0.024 s⁻¹.
